Experimental findings from the domain aggregation screens of Martell et al. (2025) are described below.

This series is described as follows: soluble fraction after stress (log2 fold change); higher = more stays soluble; pooled small domains, quantitative proteomics. As to conditions: stress: pH 4. Summed up: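 Custom libraries of small protein domains were pooled and measured with high-throughput quantitative proteomics after pH 4 stress. The read-out is the fold change in the amount of each domain that stays soluble after the acid stress, taken as a measure of aggregation propensity. Fold changes are on a log2 scale, and higher values mean more of the domain stayed soluble.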
Turning to “HMLKDQSIAQLEKNLDDLKGLMRKMFGSSDVPKITKMISDIESSLANFNQSKANKLIVQTTNYISSKL”, the “soluble fraction (log2)” value was -0.0978.

“HMLKEDSAYELGLRIFDQALNDYGTSFIDLKEDEYKKVLSIYGYSNPRQLIINIGLGNVIPHLLARDITE”: the “soluble fraction (log2)” value is -1.17.

As to “HMLKEGIKEKINQLQVYADKNDNIIWYDRVVDILSDKDDSVTDEMIEAAIRTLEEAGISVERKQ”, the “soluble fraction (log2)” value is -1.04.

For the sequence “HMLKEGQYSPNHFHWHKMEDIINRGGGTLLIRVYNSLPDEEIDRESDVTVHMDGVTRTVPAGTQLRLE”, the “soluble fraction (log2)” value was -0.345.

As to “HMLKETGVITASVLNVREDIGTSSNIVAQLKKGMEVNILESRAIAGSETWYRIDAGSIKGWIFGDYI”, the “soluble fraction (log2)” value was -2.29.

Turning to “HMLKFGLSQRELQILALLPTDEPLSILAKSLFISESTLKTHLTHIYRKLGVKNRLQAINVARKAGLLK”, the “soluble fraction (log2)” value is -0.502.

On to “HMLKHSKQRDAIEQFLATRYDHPTAETVYMNLREEYPKLSLATVYRNLSLLAELGNIQKIPTGNGPDRFDG”, for which the “soluble fraction (log2)” value is 0.22.

Take “HMLKIAENIYQRRKEKNITQEELADFMMVTKASVSKWETGQSYPDILLLPKLATFFNVTVDELIGYEPQ”: the “soluble fraction (log2)” value was -1.07.

Consider “HMLKIVRSREEVESRLYTIYGNVKGRRLYNFYLSLIIDGLDIVKARTSKNVYYTNIRNLKNAGIDFSQKIN”, for which the “soluble fraction (log2)” value was -0.0641.

With “HMLKPKDLHLGDSVRVLSLNLKGTVSSLPDTKGFLFVQMGIMRSKLHISDLQLIDEPVITAP”, the “soluble fraction (log2)” value was -0.314.

Consider “HMLLFSVADIVKRSKRILSFKTDAELAAYFGVSRSTLSNWIARNSIDFPLLLSKMKDVDYTWLILGKGTPG”, for which the “soluble fraction (log2)” value was -0.207.

For “HMLLLHINQMGVTEFSQLELNHVRSWLANLQIKGAARSSITRRVVSVRAFTYWGAKNGWLASDIGRDLVAP”, the “soluble fraction (log2)” value was -0.275.

Consider “HMLLRVGGLVKDGSVRTDNDLGIKFIIEDNLAEVSVLYNGILPDLFREGQGVIAEGKFIDNIFIANEIVA”, for which the “soluble fraction (log2)” value was -1.13.

“HMLLSHTAQREGELLTFLRGELALSSGLVKRLKWQNAFFLDGAPVHTNARVKPGQEITVRIEE”: the “soluble fraction (log2)” value is -1.09.

“HMLLTEETLPQLKQIVDEFPYFQIARMLYLKNLAVLNDIRFSVELKKMSIYVPDRRKLFTLIEGE”: the “soluble fraction (log2)” value is -0.69.

For “HMLLTLPEDIITMVRQGTLSAGHARVLAGLESDEMKMTLARQTITNEWSVRQLENAVALMRKS”, the “soluble fraction (log2)” value was -0.858.

For “HMLLTPLEETRLVIEEIVIPQKLTIDLLPRSSAIRKLQHELITHYQLRGTSVGNEPNRRLRIYP”, the “soluble fraction (log2)” value was -0.633.

In the case of “HMLMNADVLVKYQEDHWIVISEKASQASDTFDKKEQAVERAKEIAKNKNSSVKVYKQDGTLQDTFDYS”, the “soluble fraction (log2)” value was 0.306.

In the case of “HMLMSDEENAEFTKLYRQLVFKLHPDLNPNQTKDEENLWHKVQMAYKGGDLEEMRSLAIILDAQ”, the “soluble fraction (log2)” value was -0.547.

As to “HMLMTGSLQTKHGKYYVVVRIPDGLGNTKAKWINTGIPTDGNNKRKAQQRRIEILTELEENKD”, the “soluble fraction (log2)” value is 0.168.

“HMLMYAQDEKEEASNNIPYRLLHMSFTKEQKAELQRAMDVRVPKDIILSYFYPDTPVARMMEIRRQYESA”: the “soluble fraction (log2)” value was 0.12.

Take “HMLNDKLQTLFSLFPAVDKDLKKKGVTRQILWEQYKRNHPDGVGRSQFNYYYAQWKDQVNPT”: the “soluble fraction (log2)” value worked out at 0.22.

On to “HMLNDMYAVMEIRGQGGELIAKLINQDGSPFYVKKGTTLQSGHVIDEITTTYVRAEKAGAKDYLYF”, for which the “soluble fraction (log2)” value is -1.65.

On to “HMLNDTGAIRAAVEEVLAANEKSVNEYKGGKTQAFQYLIGQSMRALRGKAPAQEVTKLLKELLG”, for which the “soluble fraction (log2)” value was -0.0483.

On to “HMLNQIGVSQKEFDQIHTAIKIALKTSSLTPTGITEKLPKFPPEKTADILRWMADNKEVLLNSEEKYELKT”, for which the “soluble fraction (log2)” value turned out to be 0.0247.

Regarding “HMLPAGAAAPLEDGSAPEGYTVKGNADSGLYHEPDGRWYDATVAEFWFKTAADAEAAGFRKAGS”, the “soluble fraction (log2)” value is -0.741.

With “HMLPDGEAFVKVNTSLNIRTGPWGQIVGWFHNNDKVKIIGRDGDWYKISHNGQTRYIHSRYVSSSR”, the “soluble fraction (log2)” value is -0.0297.

In the case of “HMLPDHAPITMRQLAMLHVAKNKLDLTDEDYRSLLLLYGGVESSKQLNQEGLRRVLDRFKELGFEP”, the “soluble fraction (log2)” value is -0.258.

Consider “HMLPDLLNGRVIPSPEKVIRARLNRGVWELLVQWVGRAPSDATWENLLEFKSAYPSVQLEDALF”, for which the “soluble fraction (log2)” value is -1.1.

In the case of “HMLPDLQKAIDTFLYEVDSRINTSFEELIDKLNSKEEAVAFFLALLEAVRWGFIKAEQESNSINIKK”, the “soluble fraction (log2)” value is -1.49.

Take “HMLPDSQLMKEATAWFMRQAADDFSGAERRRLDAWRAQSPAHARAYHQVQALWNAPELQQAAAR”: the “soluble fraction (log2)” value is -0.0106.

With “HMLPEGIENGDVLTRTDALDYRKWLVTGNQKRIFASTASFYGENFNYSEVKAVSDRVLDAIPDGEPV”, the “soluble fraction (log2)” value is -0.549.

Consider “HMLPFGHTRLEDGTIQEIPEQIALARKVAEMYKAGFPVMQISIKTEGLLTPRQIYGLMNHWGVKR”, for which the “soluble fraction (log2)” value was -0.412.

For the sequence “HMLPIKLDLEIGENVRVVSGPLENFVGSVVSFDTDQQKVKLVVEMFGRKTPVELDFIEVQKLR”, the “soluble fraction (log2)” value is -1.47.

For the sequence “HMLPIMDRLITAGISINTAKKWVDKFGDKRIKQNLAYSLAKQKEGKVKTNFVGYLAKAIEEDWGSGWE”, the “soluble fraction (log2)” value was at least 0.43.

“HMLPKAERREQLMAVARSVFAEQGYHTTSMEIIAETAGVSKPLLYQHFPSKLDLYLALLDAGID”: the “soluble fraction (log2)” value is -1.1.

Consider “HMLPKILVMDGKVNKNALTTLGKDEEWVKKVLRNHNIHSIKDVLLALYDTKGKFQYQLYDDYEK”, for which the “soluble fraction (log2)” value is -0.019.

Take “HMLPKNITNTIDHWIQKFPQGKQRSAIIAALHAVQHHNKGFLTNDLLNQVADYIDVPKMNVYEVATFYSM”: the “soluble fraction (log2)” value came to 0.22.

Regarding “HMLPLIEVPAVTGKYLTKAKSALKDAGLDTGDIKRVEHEEHGENYVLKQDPPAGTKVPFGTTVSLTVVAP”, the “soluble fraction (log2)” value was 0.15.

As for “HMLPLLEYLDPFTGKKTYTYLNPDTQHPIFTYYSYQDDKTGRTAYSYIDPLTGKAVNSDEPPMDILYD”, the “soluble fraction (log2)” value was -1.34.

Take “HMLPPHMEVRAIMILDKRPMALMNIEGEGDGLIVSPGYRFGDGRGRVVSITQTKVVVLWAGTSMEL”: the “soluble fraction (log2)” value was -0.383.

Take “HMLPQYELIKQYLRHQIETGEWPIGYRTPSEPKLAEQFSVSRMTARRALQELADQGLLSRTAGSGTFVAKP”: the “soluble fraction (log2)” value stood at 0.0856.

On to “HMLPVQGEEVAPGLYKFDFPFLADKRVWEKTINAFKAEHPELKVNYIYTGPDELNSKKKTHVLVYVFTES”, for which the “soluble fraction (log2)” value is -0.122.

For “HMLPVYSITEAAERLDIPASTIKWYADRFASYISPSKGKGRKRFTPEDLATLQKIHELSQDHTTEEAEAML”, the “soluble fraction (log2)” value is -1.16.

On to “HMLPYKGTVAVSLAVLHKAVGVGTADMLKAVGTLRQGTEVTVTGRNGPFAQLKNGLWMKESFLE”, for which the “soluble fraction (log2)” value amounted to 0.193.

Consider “HMLQADALADPVGWALRTLGFDLEAGTPERSAIQRSFRQSLIEAHPDHGGADDEAAQRIADITEARRILLA”, for which the “soluble fraction (log2)” value was -0.858.

On to “HMLQFTYPRLHTKKSWYVDFMSFDPGAGKMRRKKFMLDGIPKITDRRKRAAELIEVLTKQLRAGWSPWVNV”, for which the “soluble fraction (log2)” value was 0.403.

Consider “HMLQIADEYLDRLQALFEDVRDNHFAIGDLLVELVDMHDSRRVDVINYIAGRLAISPTTLYDYENTARR”, for which the “soluble fraction (log2)” value is -0.966.

For the sequence “HMLQLDATDRALIVATQGGLPLVPRPYQVVGEQLGISGEEVVARLRALLDAGVIRRIGAVPN”, the “soluble fraction (log2)” value was 0.327.

As for “HMLQLKEPLKKVYERLTPVPKTAETILAELWEKGEYLDIAALHRALMELELSGYVRQSSPGYFGTSA”, the “soluble fraction (log2)” value was found to be 0.00945.

For “HMLQQKESAALGERLLNQALATLKVEPDAISWDRWEALAKEYGAKSQLDILADIGLGKRLSFVVAQALTKV”, the “soluble fraction (log2)” value is -0.698.

On to “HMLRDMIIQSYRYYTDKERNPRQVWNRMEADAFWEIIRDYEGYNGDGYVHTKIIPEMEALTVIEMDN”, for which the “soluble fraction (log2)” value was -1.62.

For “HMLRISLAAARVNAEMTQEDVAREMHVSKNTVVNWEKGKSEPTISQSRELSKLYNMPLEYIFYL”, the “soluble fraction (log2)” value is 0.258.

For the sequence “HMLRKTTDLDAIRSVAKDVIDQNPKAVEDYVGGKESAIGFLLGQVMRATKGTADANTVRELLKEILDS”, the “soluble fraction (log2)” value is -0.234.

In the case of “HMLRPMVAILNKNISKGQVISEDYIKFEVRPERQIHGAYHDISEVLGRKTKNNIAAGTILKVRHLDT”, the “soluble fraction (log2)” value came out at 0.375.

For “HMLRQVSDSNALETAVKKVLDANPEEVERYKSGNKKLISFFVGQTMKATKGAGNPKEINSILAKLL”, the “soluble fraction (log2)” value came to 0.201.

Take “HMLSAEAAAARTAISTLSEDQQRVLGLSIQRGLVHEQIARATGLPLGTVKTHIRRGLIKVREALEAQAAG”: the “soluble fraction (log2)” value was 0.0049.

As for “HMLSAGETYTLGYLKASDGILFTAADGSEQTVMQRVQVRLYDNGDGTYTARLADDIAYSAVVTEDMIDK”, the “soluble fraction (log2)” value was determined as 0.256.

Take “HMLSDAAAMESIAYEAIRQMEPDTYYIIGAGTTTRGIMEVLGLKNTLIGVDLIRNKELVANDLGGKELLSY”: the “soluble fraction (log2)” value is -0.796.

On to “HMLSDEDMMELAIIENLQRENLNPIEEARAYESLIDKGFTHTEIADKMGKSRPYISNSIRLLSL”, for which the “soluble fraction (log2)” value was -1.38.

“HMLSDFHLNHDSIVNHTVQKKETIFSLSKKYGLSINEIIKANPGIQIDKLKRRSILIIPLRKK”: the “soluble fraction (log2)” value was -0.12.

On to “HMLSDLTPGDLVVHATHGIGRFLGIRKLELEGMTKDYITIQYRGNENLYVPVTQMDLVSRYI”, for which the “soluble fraction (log2)” value was -0.975.

As to “HMLSGGEVKRIEIATILARKSGLMIFDEPEAGIDLWSFARLVETFEDIRSNTSGSLVIISHQ”, the “soluble fraction (log2)” value was -0.0926.

On to “HMLSKEERRSQLLDLGVRLLSTRSLDELSIDLLAEEAGISRGLLYHYFGNKHDFHEAVVRRAADDLI”, for which the “soluble fraction (log2)” value was -1.12.

Take “HMLSLKAQVYEIIRQKILQQEYALGEKINIDTVADELKISNSPIREALMMLSQDGLIEMVPNNGARVI”: the “soluble fraction (log2)” value was -1.27.

Turning to “HMLSLSDIINDVMERLTREKNLTFDELLGEKRERRRIVYTFLALLELIRLKMIKAYQTAAFGVIRIFPR”, the “soluble fraction (log2)” value was -1.15.

As for “HMLSLTSRQQEIFDLIKGHIKKTGMPPTRSEIALHFGFRSANSAEEHLRALARKGFIELIPGTSRGIKLIE”, the “soluble fraction (log2)” value was at least 0.43.

As for “HMLSPPWYEYHRKVQAMFGRDPEVHIKDLDDLGDGKFSYMILVYNKEKAEAIKAILPQKVEMGNVTIETAI”, the “soluble fraction (log2)” value was at least 0.43.

Take “HMLSRNEWLVMEALWERPSTLMELVRQLGQEPPGWAKSTTATMVRRMEEKGLIRHEAGSKARVYHP”: the “soluble fraction (log2)” value is -0.325.
